# In US20260166131A1, “METHOD FOR PROMOTING PATHOLOGICAL TDP-43 PROTEIN DEGRADATION, AND DRUG” (TALENGEN INTERNATIONAL LIMITED, priority 2022, published 2026):
# B1: plasminogen: human plasminogen purified from human donor plasma, in which human Lys-plasminogen and Glu-plasminogen are >98% (protein)
# chain: KVYLSECKTGNGKNYRGTMSKTKNGITCQKWSSTSPHRPRFSPATHPSEGLEENYCRNPDNDPQGPWCYTTDPEKRYDYCDILECEEECMHCSGENYDGKISKTMSGLECQAWDSQSPHAHGYIPSKFPNKNLKKNYCRNPDRELRPWCFTTDPNKRWELCDIPRCTTPPPSSGPTYQCLKGTGENYRGNVAVTVSGHTCQHWSAQTPHTHNRTPENFPCKNLDENYCRNPDGKRAPWCHTTNSQVRWEYCKIPSCDSSPVSTEQLAPTAPPELTPVVQDCYHGDGQSYRGTSSTTTTGKKCQSWSSMTPHRHQKTPENYPNAGLTMNYCRNPDADKGPWCFTTDPSVRWEYCNLKKCSGTEASVVAPPPVVLLPDVETPSEEDCMFGNGKGYRGKRATTVTGTPCQDWAAQEPHRHSIFTPETNPRAGLEKNYCRNPDGDVGGPWCYTTNPRKLYDYCDVPQCAAPSFDCGKPQVEPKKCPGRVVGGCVAHPHSWPWQVSLRTRFGMHFCGGTLISPEWVLTAAHCLEKSPRPSSYKVILGAHQEVNLEPHVQEIEVSRLFLEPTRKDIALLKLSSPAVITDKVIPACLPSPNYVVADRTECFITGWGETQGTFGAGLLKEAQLPVIENKVCNRYEFLNGRVQSTELCAGHLAGGTDSCQGDSGGPLVCFEKDKYILQGVTSWGLGCARPNKPGVYVRVSRFVTWIEGVMRNN
# Columns and labels:
# [1] = Plasma plasminogen level after tail vein injection in SOD1-G93A mice (ELISA); format: in vivo, mouse
# Method: Twenty-seven 10-15 week-age B6.Cg-Tg (SOD1-G93A) 1Gur/J (SOD1-G93A) mice (pedigree number: 004435) (referred to as SOD1-G93A mice) (breeding mice were purchased from Jackson Laboratory, USA) were randomly divided into three groups: three in the vehicle control group, 12 in the 6 mg/kg plasminogen group, and 12 in the 50 mg/kg plasminogen group. The mice in the vehicle control group were injected with vehicle at 5 ml/kg by tail vein, the mice in the 6 mg/kg plasminogen group were injected with plasminogen (1.2 mg/ml) at 6 mg/kg body weight by tail vein, and the mice in the 50 mg/kg plasminogen group were injected with plasminogen (10 mg/ml) at 6 mg/kg body weight by tail vein. The mice in the vehicle control group were killed 2 hours after administration, and their blood was collected. Three mice in the 6 mg/kg plasminogen group and three mice in the 50 mg/kg plasminogen group were killed at 2, 6, 12 and 24 hours after administration, and their blood was collected. After the blood was centrifuged (3500 rpm, 10 min, 4° C.), the supernatant was taken to test according to the instructions of Human Plasminogen ELISA Kit (manufacturer: AssayMax, catalog number: EP1200-1). The concentration of each sample was calibrated by using human plasminogen working standard as the internal standard. The calibrated concentration was divided by the total protein concentration to calculate the amount of plasminogen per unit of total protein in each sample and perform statistical analysis.
# TDP-43 = target: T1, TDP-43 (Homo sapiens, UniProt Q13148); assay: Cleavage of TDP-43 protein in normal mouse brain homogenate (Western blot); format: biochemical; conditions: normal mouse brain homogenate + recombinant TDP-43, 37° C. 3 h, vs vehicle control group
# T1 construct: purchased Nanjing GenScript Biotechnology Co., Ltd. C134WHE160-2/P5HF001
# T1 sequence (Q13148 whole entry): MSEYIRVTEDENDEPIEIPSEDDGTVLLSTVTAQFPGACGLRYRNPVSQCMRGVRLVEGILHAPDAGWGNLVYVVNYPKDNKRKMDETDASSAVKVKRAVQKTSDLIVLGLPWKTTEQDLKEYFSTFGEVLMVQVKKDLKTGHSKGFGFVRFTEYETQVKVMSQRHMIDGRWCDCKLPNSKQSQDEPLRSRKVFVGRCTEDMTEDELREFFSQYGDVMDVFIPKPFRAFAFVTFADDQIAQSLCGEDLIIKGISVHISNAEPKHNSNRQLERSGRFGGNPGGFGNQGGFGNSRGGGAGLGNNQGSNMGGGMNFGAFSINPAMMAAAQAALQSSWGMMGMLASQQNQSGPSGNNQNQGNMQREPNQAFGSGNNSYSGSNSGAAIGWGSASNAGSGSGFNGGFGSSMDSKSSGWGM
# Method: Four C57BL/6J male mice aged 11-12 weeks and weighing 18-25 g were sacrificed, and the whole brain was taken out to weigh. 1×PBS was added at 150 mg tissue/mL PBS (Thermo Fisher, pH 7.4; 10010-031) to homogenize at 4° C. (1 min, 3-4 times). After homogenization, centrifugation was performed at 4° C. (12000 rpm, 20 min), and the supernatant, i.e., the brain homogenate, was placed in a new EP tube.
# Eppendorf (EP) tubes were set as: (1) blank group, (2) blank control group, (3) vehicle control group, and (4) plasminogen group, with 5 parallels in each group. The blank group was added with 21.5 μL of normal saline, 4.6 μL of vehicle solution (10 mM sodium citrate, 2% arginine hydrochloride, 3% mannitol, pH 7.4), and 23.9 μL of mouse brain homogenate; the blank control group was added with 21.5 μL of normal saline, 2.3 μL of plasminogen solution (2 mg/mL), and 23.9 μL of mouse brain homogenate; the vehicle control group was added with 20.5 μL of TDP-43 (Nanjing GenScript Biotechnology Co., Ltd., custom-expressed human TDP-43, C134WHE160-2/P5HF001, 1.05 mg/mL), 4.6 μL of vehicle solution, and 23.9 μL of mouse brain homogenate; the plasminogen group was added with 20.5 μL of TDP-43 (1.05 mg/mL), 2.3 μL of plasminogen solution (2 mg/mL), and 23.9 μL of mouse brain homogenate. After adding each group of samples, they are incubated at 37° C. for 3 h, then adding 50 μL of 0.1% trifluoroacetic acid solution to terminate the reaction.
# A 12% gel was prepared according to the SDS-PAGE gel preparation instructions. Each group of samples was mixed with 4× loading buffer (TaKaRa, e2139) at a volume ratio of 3:1, heating at 100° C. for 5 min, cooling and centrifuging for 2 min, and then 20 μL was taken for sample loading. […] After washing 4 times with TBST, the PVDF membrane was placed on a clean imaging plate, Immobilon Western HRP Substrate (MILLIPORE, WBKLS0100) was added for color development, and photos were taken under a biomolecular imager, then performing quantitative analysis by using Image J.
# NSC34 cells = assay: Plasmin activity in cytoplasm and nucleus of okadaic acid-treated NSC34 cells (enzyme substrate kinetic method, S-2251); format: cell-based; conditions: plasminogen 0.5 mg/mL 24 hours, vs vehicle group
# Method: The cells were placed in a carbon dioxide incubator for culture at 37.0° C. and 5% CO2. […] After adding plasminogen for 24 hours, the cells were harvested. […] The supernatant is the extracted cytoplasmic protein, and the supernatant is immediately sucked up into a pre-cooled sample tube for later use. The precipitate is the cell nucleus, and the remaining supernatant was completely aspirated (to avoid contamination by cytoplasmic proteins), then adding 50-100 μL of nuclear protein extraction reagent. The precipitate is completely dispersed by pipette blow or high-speed vortex for 15 seconds (can be extended appropriately), then ice-bathing for 10 minutes, vortexing vigorously at maximum speed for 10 seconds and centrifuging at 12,000-16,000 g for 10 minutes at 4° C. The supernatant was immediately sucked up by pipette into a pre-cooled sample tube; this is the extracted nuclear protein.
# [2] = Spinal cord tissue plasminogen level after tail vein injection in FAD mice (ELISA)
# Method: Twenty-seven 16-week-age B6SJL-Tg (APPSwFlLon, PSEN1*M146L* L286V) 6799Vas Mmjax (Stock Number: 034840) (FAD mice for short) (breeding mice were purchased from Jackson Laboratory, USA) were randomly divided into three groups: three mice in vehicle control group, 12 mice in 6 mg/kg plasminogen group, and 12 mice in 50 mg/kg plasminogen group. The mice in the vehicle control group were injected with vehicle at 5 ml/kg by tail vein, the mice in the 6 mg/kg plasminogen group were injected with plasminogen (1.2 mg/ml) at 6 mg/kg body weight by tail vein, and the mice in the 50 mg/kg plasminogen group were injected with plasminogen (10 mg/ml) at 6 mg/kg body weight by tail vein. […] Three mice in the 6 mg/kg plasminogen group and three mice in the 50 mg/kg plasminogen group were killed 2, 6, 12 and 24 hours after administration, and their blood was collected.
# Spinal cord tissue was obtained from the mice sacrificed in Example 21, homogenizing and detecting according to the instructions of Human Plasminogen ELISA Kit (manufacturer: AssayMax, catalog number: EP1200-1). The concentration of each sample was calibrated by using human plasminogen working standard as the internal standard. The calibrated concentration was divided by the total protein concentration to calculate the amount of plasminogen per unit of total protein in each sample and perform statistical analysis.
molecule,measurement,setting,value
B1,"plasma plasminogen level, 50 mg/kg group compared with 6 mg/kg group",[1]; tail vein,significantly higher
same,time within which plasminogen is almost completely metabolized (plasma),"[1]; tail vein 50 mg/kg and 6 mg/kg, level decreases from 2 hours",12 to 24 h
same,plasma plasminogen level,[1]; tail vein injection of 6 mg/kg,increase significantly
same,plasma plasminogen level,[1]; tail vein injection of 50 mg/kg,increase significantly
same,amount of TDP-43 monomer,TDP-43; WB optical density,significantly lower
same,amount of high molecular weight TDP-43 protein (HMW),TDP-43,significantly lower
same,amount of low molecular weight TDP-43 fragment (LMW),TDP-43,significantly lower
same,level of plasmin activity in the cytoplasm,NSC34 cells,significantly higher
same,level of plasmin activity in the nucleus,NSC34 cells,significantly higher
same,ratio of plasminogen in spinal cord tissue to plasminogen in blood,"[2]; 6 mg/kg plasminogen group, 2 hours",0.93%
same,ratio of plasminogen in spinal cord tissue to plasminogen in blood,"[2]; 6 mg/kg plasminogen group, 6 hours",1.62%
same,ratio of plasminogen in spinal cord tissue to plasminogen in blood,"[2]; 50 mg/kg plasminogen group, 2 hours",0.33%
same,ratio of plasminogen in spinal cord tissue to plasminogen in blood,"[2]; 50 mg/kg plasminogen group, 6 hours",0.40%
same,ratio of plasminogen in spinal cord tissue to plasminogen in blood,"[2]; 50 mg/kg plasminogen group, 12 hours",1.56%
same,"plasminogen level in spinal cord tissue, 50 mg/kg group compared with 6 mg/kg group",[2]; tail vein,significantly higher
same,time within which plasminogen is almost completely metabolized (spinal cord tissue),[2]; tail vein 50 mg/kg and 6 mg/kg,12 to 24 h
same,plasminogen level in spinal cord tissue,"[2]; tail vein injection of 6 mg/kg, 6 mg/kg",increases significantly
same,plasminogen level in spinal cord tissue,"[2]; tail vein injection of 50 mg/kg, 50 mg/kg",increases significantly
